Substrate: Acetylcholine
Conditions: pH 7; 22 °C

Protein	Km [µM]	kcat [s⁻¹]
unnamed (protein) MRPPWYPLHTPSLAFPLLFLLLSLLGGGARAEGREDPQLLVRVRGGQLRGIRLKAPGGPVSAFLGIPFAEPPVGSRRFMPPEPKRPWSGVLDATTFQNVCYQYVDTLYPGFEGTEMWNPNRELSEDCLYLNVWTPYPRPASPTPVLIWIYGGGFYSGAASLDVYDGRFLAQVEGAVLVSMNYRVGTFGFLALPGSREAPGNVGLLDQRLALQWVQENIAAFGGDPMSVTLFGESAGAASVGMHILSLPSRSLFHRAVLQSGTPNGPWATVSAGEARRRATLLARLVGCPPGGAGGNDTELIACLRTRPAQDLVDHEWHVLPQESIFRYSFVPVVDGDFLSDTPEALINTGDFQDLQVLVGVVKDEGSYFLVYGVPGFSKDNESLISRAQFLAGVRIGVPQASDLAAEAVVLHYTDWLHPEDPTHLRDAMSAVVGDHNVVCPVAQLAGRLAAQGARVYAYIFEHRASTLTWPLWMGVPHGYEIEFIFGLPLDPSLNYTTEERIFAQRLMKYWTNFARTGDPNDPRDSKSPQWPPYTTAAQQYVSLNLKPLEVRRGLRAQTCAFWNRFLPKLLSATDTLDEAERQWKAEFHRWSSYMVHWKNQFDHYSKQERCSDL	58	650
unnamed (protein) MRPPWYPLHTPSLAFPLLFLLLSLLGGGARAEGREDPQLLVRVRGGQLRGIRLKAPGGPVSAFLGIPFAEPPVGSRRFMPPEPKRPWSGVLDATTFQNVCYQYVDTLYPGFEGTEMWNPNRELSEDCLYLNVWTPYPRPASPTPVLIWIYGGGFYSGAASLDVYDGRFLAQVEGAVLVSMNYRVGTFGFLALPGSREAPGNVGLLDQRLALQWVQENIAAFGGDPMSVTLFGESAGAASVGMHILSLPSRSLFHRAVLQSGTPNGPWATVSAGEARRRATLLARLVGCPPGGAGGNDTELIACLRTRPAQDLVDHEWHVLPQESIFRFSFGPVVDGDFLSDTPEALINTGDFQDLQVLVGVVKDEGSYFLVYGVPGFSKDNESLISRAQFLAGVRIGVPQASDLAAEAVVLHYTDWLHPEDPTHLRDAMSAVVGDHNVVCPVAQLAGRLAAQGARVYAYIFEHRASTLTWPLWMGVPHGYEIEFIFGLPLDPSLNYTTEERIFAQRLMKYWTNFARTGDPNDPRDSKSPQWPPYTTAAQQYVSLNLKPLEVRRGLRAQTCAFWNRFLPKLLSATDTLDEAERQWKAEFHRWSSYMVHWKNQFDHYSKQERCSDL	50	2670
unnamed (protein) MRPPWYPLHTPSLAFPLLFLLLSLLGGGARAEGREDPQLLVRVRGGQLRGIRLKAPGGPVSAFLGIPFAEPPVGSRRFMPPEPKRPWSGVLDATTFQNVCYQNVDTLYPGFEGTEMWNPNRELSEDCLYLNVWTPYPRPASPTPVLIWIYGGGFYSGAASLDVYDGRFLAQVEGAVLVSMNYRVGTFGFLALPGSREAPGNVGLLDQRLALQWVQENIAAFGGDPMSVTLFGESAGAASVGMHILSLPSRSLFHRAVLQSGTPNGPWATVSAGEARRRATLLARLVGCPPGGAGGNDTELIACLRTRPAQDLVDHEWHVLPQESIFRFSFVPVVDGDFLSDTPEALINTGDFQDLQVLVGVVKDEGSYFLVYGVPGFSKDNESLISRAQFLAGVRIGVPQASDLAAEAVVLHYTDWLHPEDPTHLRDAMSAVVGDHNVVCPVAQLAGRLAAQGARVYAYIFEHRASTLTWPLWMGVPHGYEIEFIFGLPLDPSLNYTTEERIFAQRLMKYWTNFARTGDPNDPRDSKSPQWPPYTTAAQQYVSLNLKPLEVRRGLRAQTCAFWNRFLPKLLSATDTLDEAERQWKAEFHRWSSYMVHWKNQFDHYSKQERCSDL	110	2170
unnamed (protein) MRPPWYPLHTPSLAFPLLFLLLSLLGGGARAEGREDPQLLVRVRGGQLRGIRLKAPGGPVSAFLGIPFAEPPVGSRRFMPPEPKRPWSGVLDATTFQNVCYQYVDTLYPGFEGTEMWNPNRELSEDCLYLNVWTPYPRPASPTPVLIWIYGGGFYSGAASLDVYDGRFLAQVEGAVLVSMNYRVGTFGFLALPGSREAPGNVGLLDQRLALQWVQENIAAFGGDPMSVTLFGESAGAASVGMHILSLPSRSLFHRAVLQSGTPNGPWATVSAGEARRRATLLARLVGCPPGGAGGNDTELIACLRTRPAQDLVDHERHVLPQESIFRFSFVPVVDGDFLSDTPEALINTGDFQDLQVLVGVVKDEGSYFLVYGVPGFSKDNESLISRAQFLAGVRIGVPQASDLAAEAVVLHYTDWLHPEDPTHLRDAMSAVVGDHNVVCPVAQLAGRLAAQGARVYAYIFEHRASTLTWPLWMGVPHGYEIEFIFGLPLDPSLNYTTEERIFAQRLMKYWTNFARTGDPNDPRDSKSPQWPPYTTAAQQYVSLNLKPLEVRRGLRAQTCAFWNRFLPKLLSATDTLDEAERQWKAEFHRWSSYMVHWKNQFDHYSKQERCSDL	420	2670
unnamed (protein) MRPPWYPLHTPSLAFPLLFLLLSLLGGGARAEGREDPQLLVRVRGGQLRGIRLKAPGGPVSAFLGIPFAEPPVGSRRFMPPEPKRPWSGVLDATTFQNVCYQYVDTLYPGFEGTEMWNPNRELSEDCLYLNVWTPYPRPASPTPVLIWIYGGGFYSGAASLDVYDGRFLAQVEGAVLVSMNYRVGTFGFLALPGSREAPGNVGLLDQRLALQWVQENIAAFGGDPMSVTLFGESAGAASVGMHILSLPSRSLFHRAVLQSGTPNGPWATVSAGEARRRATLLARLVGCPPGGAGGNDTELIACLRTRPAQDLVDHEWHVLPQESIFRFSFVPVVDGDFLSDTPEALINTGDFQDLQVLVGVVKDEGSFFLVYGVPGFSKDNESLISRAQFLAGVRIGVPQASDLAAEAVVLHYTDWLHPEDPTHLRDAMSAVVGDHNVVCPVAQLAGRLAAQGARVYAYIFEHRASTLTWPLWMGVPHGYEIEFIFGLPLDPSLNYTTEERIFAQRLMKYWTNFARTGDPNDPRDSKSPQWPPYTTAAQQYVSLNLKPLEVRRGLRAQTCAFWNRFLPKLLSATDTLDEAERQWKAEFHRWSSYMVHWKNQFDHYSKQERCSDL	53	1130

Source: the PETadex activity labels (doi:10.1021/bi00096a018)
